Measurements taken from US20100093076A1, “SOLUBLE IL-27 RECEPTOR” (priority 2006, published 2010).

Experiments:
Format in all cases: cell-based
huIL-27 [1] = target: T1, huIL-27 (Homo sapiens, UniProt Q14213+Q8NEV9); assay: Phospho-STAT3 (BIO-PLEX) neutralization of IL-27 by soluble receptors, total human PBMCs; conditions: ligand huIL-27 at EC90 (2 nM)
T1 construct: purchased R&D Systems
T1 sequence (Q8NEV9 29-243): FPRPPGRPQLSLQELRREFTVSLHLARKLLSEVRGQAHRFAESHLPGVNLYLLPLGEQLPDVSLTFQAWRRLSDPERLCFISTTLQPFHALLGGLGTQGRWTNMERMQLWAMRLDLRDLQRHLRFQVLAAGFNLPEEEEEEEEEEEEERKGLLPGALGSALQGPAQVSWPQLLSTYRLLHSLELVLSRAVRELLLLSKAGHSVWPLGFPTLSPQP
T1 sequence (Q14213 21-229): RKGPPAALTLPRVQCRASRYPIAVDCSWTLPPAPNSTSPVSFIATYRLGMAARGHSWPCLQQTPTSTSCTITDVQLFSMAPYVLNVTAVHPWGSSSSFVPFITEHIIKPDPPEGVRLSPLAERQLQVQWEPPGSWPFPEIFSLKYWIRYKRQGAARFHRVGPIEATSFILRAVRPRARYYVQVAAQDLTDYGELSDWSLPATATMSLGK
Text: (§1) Whole mouse spleens were harvested from C57 B1/6 mice and washed two times with 1×PBS before being plated out at 2×10^5 cells/well in assay media (RPMI 1640 plus 10% fetal bovine serum) in 96-well, round-bottom tissue culture plates. Total human PBMC (peripheral blood mononuclear cells) were thawed from a frozen vial collected from a leukapherisis donation and washed two times with 1×PBS before being plated out at 10^6 cells/well in assay media in 96-well, round-bottom tissue culture plates. […] Following pre-incubation, treatments were added to the plates containing the cells and incubated together at 37° C. for 15 minutes.
(§2) Following incubation, cells were washed with ice-cold wash buffer (BIO-PLEX Cell Lysis Kit, BIO-RAD Laboratories, Hercules, Calif.) and put on ice to stop the reaction according to manufacturer's instructions. […]
(§3) Capture beads (BIO-PLEX Phospho-Stat3 Assay, BIO-RAD Laboratories) were combined with 50 μL of 1:1 diluted lysates and added to a 96-well filter plate according to manufacture's instructions (BIO-PLEX Phosphoprotein Detection Kit, BIO-RAD Laboratories). […] After the final wash, beads were resuspended in 125 μL/well of bead suspension buffer, shaken for 30 seconds, and read on an array reader (BIO-PLEX, BIO-RAD Laboratories) according to the manufacture's instructions. Data were analyzed using analytical software (BIO-PLEX MANAGER 3.0, BIO-RAD Laboratories). […]

muIL-27 [2] = target: T2, muIL-27 (Mus musculus, UniProt O35228+Q8K3I6); assay: as above; conditions: ligand muIL-27 at EC90 (2 nM)
T2 construct: purchased R&D Systems
T2 sequence (Q8K3I6 29-234): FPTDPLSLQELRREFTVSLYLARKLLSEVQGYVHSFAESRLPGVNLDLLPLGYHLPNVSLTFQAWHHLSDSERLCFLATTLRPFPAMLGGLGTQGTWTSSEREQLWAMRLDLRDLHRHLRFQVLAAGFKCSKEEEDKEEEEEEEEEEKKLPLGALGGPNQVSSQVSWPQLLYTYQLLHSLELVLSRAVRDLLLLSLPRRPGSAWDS
T2 sequence (O35228 19-228): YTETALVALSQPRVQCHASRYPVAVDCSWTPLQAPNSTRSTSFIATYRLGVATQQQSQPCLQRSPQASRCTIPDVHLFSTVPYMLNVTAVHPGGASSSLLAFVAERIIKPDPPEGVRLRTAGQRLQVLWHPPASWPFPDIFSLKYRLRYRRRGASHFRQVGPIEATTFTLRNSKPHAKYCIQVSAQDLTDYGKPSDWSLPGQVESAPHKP
Text: as §1, §2, §3

huIL-27 [3] = target: T1, huIL-27; assay: Phospho-STAT3 (BIO-PLEX) neutralization of IL-27 by soluble receptors, mouse spleens; conditions: ligand huIL-27 at EC90 (2 nM)
Text: as §1, §2, §3

muIL-27 [4] = target: T2, muIL-27; assay: as above; conditions: ligand muIL-27 at EC90 (0.2 nM)
Text: as §1, §2, §3

IC50 (huIL-27 [1]): 1370 nM
IC50 (muIL-27 [2]): 4.83 nM
IC50 (huIL-27 [3]): 9.3 nM
IC50 (muIL-27 [4]): 0.18 nM
B1: IL-27RAm(mFc1): Extracellular domain of mouse IL27RA fused to a wild type BALB/c mouse gamma2a constant region Fc tag (protein)
chain: MNRLERVALARLETPRLEGLLELELESLEMSLELELEGTRPRHGSPRGPRLEQCYSVGPRLEGILENCSWGLPRLEGDLEGLTPRPRVLEYHQSQKYHPRNRVWGLVKVPRSKQSWVTIPRRGLQFTMADKLELEIWGTQKGRPRLEWSSVSVASNLEGLTQMKPRDTPRQIFSQVASPISGLGLATLEGLATVQWAPRPRVWPRPRQKALETCQFRYKGLCQAGLAWTRLEGLPRQLEKTDGLETPRVGLMQNLEGLPRGTCYQVSGRCQVGLNGYPRWGGLWSSPRLESFQTPRFLEDPRGLDVWVSGTVCGLTSGKRAALELEVWKDPRRPRCVQVTYTVWFGAGDITTTQGLGLVPRCCKSPRVPRAWMGLWAVVSPRGNSTSWVPRPRTNLESLEVCLEAPRGLSAPRCDVGVSSADGSPRGIKVTWKQGTARGSPRLEGLYVVASPWAQDGDSLEDKLENWTRLEPRPRGNLESTLELEPRGGLFKGGVPRYRITVTAVYSGGLEAAAPRSVWGFRGLGLLEVPRLEAGPRAVWRLEPRDDPRPRGTPRVVALAWGGLVPRRHQLERGQATHYTFCIQSRGLESTVCRNVSSQTQTATLEPRNLEHSGSFKLEWVTVSTVALAGQGPRPRGPRDLESLEHLEPRDNRIRWKALEPRWFLESLEWGLELELEMGCGLESLEASTRCLEQARCLEHWRHKLELEPRQWIWGLRVPRDPRANSNSGQPRYIKGLVSLEPRQPRPRKDGPRILEGLVGLGLVGLLEQPRVVGLSPRKASAPRIYSGYGLKHFLEPRTPRGLGLLEGLELEV
modifications: left off: a dimerising Fc or GST
notes: Extracellular domain of mouse IL27RA fused to a wild type BALB/c mouse gamma2a constant region Fc tag
